Laboratory results: the supplement of paper PMC10567573

B1: HESX1 (parent)
chain: ENKPSTCSFSIERILGLDQKKDCV
B2: EFHC1 (parent)
chain: NIYYYLEDDSMSVIEPVVENSGIL

Variants of: B1
Experiment: protein stability index of a GFP-peptide fusion (GPS, HEK-293T) (PSI 1-6); higher = more stable
Conditions: c terminus: a fixed tail appended
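Note: lentivirally expressed fusions sorted by FACS into six bins by GFP to DsRed ratio, PSI derived from sequencing read proportions per bin multiplied by bin number.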

Protein stability index, by site and new letter:
L15: A 3.14, C 2.63, D 4.06, E 4.11, F 2.53, G 3.27, H 3.13, I 2.96, K 4.23, M 2.12, N 3.73, P 3.44, Q 2.69, R 3.61, S 3.5, T 4, V 4.16, W 2.46, Y 2.38
G16: A 3.2, C 2.83, D 3.74, E 3.27, F 2.49, H 2.83, I 2.63, K 2.9, L 2.43, M 2.92, N 3.41, P 3.75, Q 3.76, R 2.23, S 3.28, T 3.69, V 3.15, W 2.32, Y 2.28
L17: A 4, C 3.22, D 4.4, E 4.25, F 2.91, G 3.83, H 3.53, I 3.31, K 4.04, M 2.11, N 4.42, P 4.69, Q 3.59, S 3.86, T 3.78, V 4.2, W 2.82, Y 2.56
D18: A 2.94, C 2.85, E 3.4, F 1.85, G 2.55, H 3, I 1.74, K 2.79, L 2.12, M 2.23, N 2.62, P 2.71, Q 2.89, R 2.76, S 3.13, T 2.77, V 1.8, W 2.32, Y 2.14
Q19: A 2.33, C 2.67, D 3.34, E 3.23, F 2.12, G 3.06, H 2.47, I 2.39, K 2.94, L 2.62, M 2.6, N 2.64, P 3.14, R 3.2, S 2.79, T 2.88, V 2.71, W 1.35, Y 1.97
K20: A 2.45, C 2.52, D 3.27, E 3.08, F 2.22, H 2.47, I 2.13, L 1.93, M 2.67, N 2.71, P 2.75, Q 2.56, R 2.41, S 2.69, T 2.53, V 2.25, W 1.62, Y 1.97
K21: A 2.41, C 2.11, D 3.16, E 3.4, F 2.35, G 2.86, H 2.35, I 1.9, L 2.27, M 2.05, N 2.62, P 2.67, Q 2.93, R 2.62, S 2.95, T 3.19, V 2.54, W 1.86, Y 1.67
D22: A 2.51, C 2.12, E 3.24, F 2.1, G 2.78, H 2.04, I 1.94, K 2.73, L 1.5, M 1.77, N 2.9, P 3.08, Q 2.73, R 3.08, S 3.41, T 2.02, V 1.56, W 1.46, Y 2.14
C23: A 3.64, D 4.38, E 3.6, F 2.62, G 3.56, H 3.33, I 2.91, K 3.41, L 2.7, M 2.83, N 3.23, P 3.29, Q 3.42, R 3.92, S 3.45, T 3.16, V 3.41, Y 2.46
V24: A 3.81, C 3.49, D 4.18, E 4.25, F 2.91, G 3.9, H 4.64, I 3.64, K 4.15, L 3.03, M 2.89, N 3.79, P 3.14, Q 3.81, R 3.38, S 2.88, T 2.83, W 2.18, Y 2.74

Variants of: B2
Experiment: as above
Conditions: c terminus: a fixed tail appended

Protein stability index, by site and new letter:
N1: A 2.06, C 1.54, D 1.59, E 2.48, F 2.88, G 2.08, H 1.74, K 1.09, L 1.92, M 2.34, P 2.15, Q 2.83, R 1.32, S 2.19, T 1.4, W 1.61, Y 1.81
I2: A 2.86, C 2.29, D 2.62, E 3.79, F 1.82, G 3.21, H 2.72, K 3.44, L 2.05, M 2.96, N 3.23, P 3.82, Q 3.33, R 3.03, S 3.4, T 3.29, V 2.13, W 2.35, Y 2.07
Y3: A 2.85, C 2.9, D 4.08, E 3.76, F 2.07, G 3.43, H 2.81, I 2.23, K 2.72, L 2.15, M 2.17, N 3.38, P 3.39, Q 3.12, R 3.04, S 3.2, T 3.64, V 2.38, W 1.82
Y4: A 2.12, C 2.31, D 2.74, E 2.78, F 1.85, G 3.49, H 2.33, I 1.49, K 2.66, L 1.42, M 2.18, N 2.35, P 4.01, Q 2.39, R 2.51, S 3.48, T 2.91, V 1.24, W 2.99
Y5: A 3.1, C 2.45, D 3.64, E 3.62, F 1.94, G 3.27, H 2.69, I 1.92, K 3.41, L 2.51, M 2.36, N 2.78, P 3.83, Q 2.92, R 3.35, S 3.23, T 2.79, V 2.39, W 1.75
L6: A 3.01, C 2.24, D 3.26, E 2.88, F 1.72, G 3.65, H 3.03, I 2.23, K 2.68, M 2.25, N 3.57, P 4.08, Q 2.84, R 2.93, S 2.5, T 2.71, V 2.23, W 1.52, Y 2.22
E7: A 1.4, C 2.43, D 1.89, F 1.13, G 1.65, H 1.3, I 2.12, K 1.91, L 2.33, M 2.09, N 2.72, P 1.92, Q 1.94, R 2.52, S 1.46, T 2.38, W 1.41, Y 2.31
D8: A 1.94, C 2.56, E 1.94, F 2.17, G 2.47, H 1.89, K 1.6, M 2.71, N 2.01, P 2.23, Q 1.91, R 2.35, S 2.6, T 1.83, V 3.11, W 4.45, Y 2.03
